Data taken from US8889620B2, “Pharmaceutical compositions comprising peptide antagonists of vascular endothelial growth factor” (Children's Medical Center Corporation, priority 1997, dated 2014).
“Also recorded” adds a separate entry of the source. Blank lines part the entries; values can stand above or below the molecule they belong to. Where no end group is shown, it is not given here.

Tests used:
[1] = biological target: T1, KDR/Flk-1 on PAE-KDR cells (Homo sapiens, UniProt P35968); test: Inhibition of 125I-VEGF165 binding to PAE-KDR cells; set-up: species or system porcine endothelial cells transfected to express KDR/Flk-1
T1 construct: expressed in transfected cells; host or cells: porcine endothelial cells (PAE), gift of Dr. Claesson-Welsh
T1 sequence (P35968 20-1356): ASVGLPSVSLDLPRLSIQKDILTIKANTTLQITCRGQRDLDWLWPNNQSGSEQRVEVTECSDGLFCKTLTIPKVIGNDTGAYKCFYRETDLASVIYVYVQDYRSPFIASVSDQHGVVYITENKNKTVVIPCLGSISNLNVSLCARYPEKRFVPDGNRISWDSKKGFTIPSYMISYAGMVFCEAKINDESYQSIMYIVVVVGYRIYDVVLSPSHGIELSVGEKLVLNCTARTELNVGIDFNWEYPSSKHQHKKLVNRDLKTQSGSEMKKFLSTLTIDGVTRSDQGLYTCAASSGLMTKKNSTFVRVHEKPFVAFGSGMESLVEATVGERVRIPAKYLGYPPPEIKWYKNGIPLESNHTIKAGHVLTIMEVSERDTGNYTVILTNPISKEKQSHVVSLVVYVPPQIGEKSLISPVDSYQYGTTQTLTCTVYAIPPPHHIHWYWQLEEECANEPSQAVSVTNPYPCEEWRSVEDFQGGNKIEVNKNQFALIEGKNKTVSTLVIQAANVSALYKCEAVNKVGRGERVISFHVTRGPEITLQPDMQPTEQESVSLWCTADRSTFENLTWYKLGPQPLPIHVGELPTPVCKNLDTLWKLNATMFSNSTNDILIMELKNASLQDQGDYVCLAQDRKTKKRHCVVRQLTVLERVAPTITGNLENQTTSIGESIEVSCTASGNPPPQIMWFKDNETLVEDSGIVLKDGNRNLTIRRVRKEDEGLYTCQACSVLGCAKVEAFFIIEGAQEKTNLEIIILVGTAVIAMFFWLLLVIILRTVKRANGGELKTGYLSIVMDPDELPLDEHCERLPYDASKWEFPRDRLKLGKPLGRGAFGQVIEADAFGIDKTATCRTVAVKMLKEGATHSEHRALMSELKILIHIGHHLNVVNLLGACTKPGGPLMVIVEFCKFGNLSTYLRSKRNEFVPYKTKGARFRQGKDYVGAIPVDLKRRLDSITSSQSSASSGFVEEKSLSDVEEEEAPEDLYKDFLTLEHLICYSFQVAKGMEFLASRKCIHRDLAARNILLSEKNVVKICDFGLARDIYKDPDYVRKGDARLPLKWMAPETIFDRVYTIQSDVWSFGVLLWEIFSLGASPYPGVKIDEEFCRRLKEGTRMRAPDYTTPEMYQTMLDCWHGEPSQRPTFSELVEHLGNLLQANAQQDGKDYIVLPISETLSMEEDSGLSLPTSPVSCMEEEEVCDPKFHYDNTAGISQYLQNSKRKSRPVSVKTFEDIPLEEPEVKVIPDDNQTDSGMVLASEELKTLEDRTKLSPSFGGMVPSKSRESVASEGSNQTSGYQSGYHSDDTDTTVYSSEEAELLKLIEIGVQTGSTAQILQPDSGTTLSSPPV
Description: (§1) FIGS. 3A-3C. Inhibition of ^125I-VEGF165 binding to HUVEC, MDA MB 231 cells, and PAE-KDR cells by GST-EX 7+8. ^125I-VEGF165 (5 ng,/ml) was bound to subconfluent cultures of HUVEC (3A), MDA MB 23 1 cells (3B), and PAE-KDR cells (3C) in 48-well dishes in the presence of increasing amounts of GST-Ex 7+8 (closed 20 square) or control GST protein (open squares). At the end of a 2-h incubation, the cells were washed and lysed, and the cell-associated radioactivity was determined with a γ-counter. The counts obtained are expressed as the percentage of the counts obtained in the presence of PBS without addition of GST or fusion protein.
Human umbilical vein endothelial cells (HUVEC) were obtained from the American Type Culture Collection (ATCC) (Rockville, Md.) and grown on gelatin-coated dishes in M-199 medium containing 20% fetal calf serum (FCS) and a mixture of glutamine, penicillin, and streptomycin (GPS). Basic FGF (1 nglml) was added to the culture medium every other day. Porcine endothelial cells (PAE), parental and transfected to express KDRElk-1 (PAE-KDR), were kindly provided by Dr. Lema Claesson-Welsh and grown in F12 medium containing 10% FCS and GPS as described (Waltenberger, et al., J. Biol. Chem., 269,26988-26995 (1994)). MDAMB-231 (231) cells were obtained from ATCC and grown in Bulbecoo's modified Eagle's medium containing 10% FCS and GPS.
(§2) Binding and cross-linking experiments using 125I-VEGF165 and 125I-VEGF121 were performed at described previously (Gitay-Goren, et al., J. Biol. Chem., 287, 6003-6096 (1992), Soker, et al., J: Biol. Chem., 271,5761-5767 (1996)). VEGF binding was quantified by measuring the cell-associated radioactivity in a y-counter (Beckman, Gamma 5500). The counts represent the average of three walls. All experiments were repeated at least three times, and similar results were obtained. 125I-VEGF cross-linked complexes were resolved by 6% SDS-PAGE, and the gels were exposed to a phosphor screen and scanned after 24 h by a PhosphorImager (Molecular Dynamics). Subsequently, the gels were exposed to x-ray film.

[2] = tested on: VEGF165-induced proliferation of HUVEC; test: Inhibition of VEGF165-stimulated HUVEC proliferation; format: cell-based, human; settings: even at 25 ug/ml
Description: (§3) FIG. 6. GST-Ex 7+8 fusion protein inhibits VEGF165-stimulated HUVEC proliferation. HUVEC were cultured in 96-well dishes (5,000 cell/well) as in FIG. 2. Increasing concentrations of VEGF165 (open circles), together with 15 ug/ml GST-Ex 7+8 (closed circles) or 25 ug/ml GST (squares), were added to the medium, and the cells were incubated for 4 more days. DNA synthesis was measured in HUVEC as described in FIG. 2. The results represent the average counts of three wells, and the standard deviations were determined.
FIG. 7. GST-Ex 7+8 fusion protein inhibits VEGF165 and VEGF121-stimulated HUVEC proliferation. Increasing concentration of VEGF165 (circles) or VEGF121 (square) with 15 ug/ml GST-Ex 7+8 (closed symbols) or without GST-Ex 7+8 (open symbols) were added to HUVEC, and [*H]thymidine incorporation into the DNA was measured as in FIG. 2. The results represent the average counts of three wells and the standard deviations were determined.
(§4) HUVEC were seeded in gelatin-coated 96-well dishes at 4,000 cells/200 Ul/well in M-199 containing 5% FCS and GPS. After 24 H, VEGF isoforms and VEGF exon 7-GST fusion proteins were added to the wells at the same time. The cells were incubated for 72 h, and [3H]thymidine (1 pC/ml) was added for 10-12 h. The medium was aspirated, and the cells were trypsinized and harvested by an automatic cell harvester (TOMTEC) and loaded onto Filtermats (Wallac). The Filtermats were scanned and cpm were determined by a MicroBeta counter (Wallac). The results represent the average of samples assayed in triplicate, and the standard derivations were determined. All experiments were repeated at least three times and similar results were obtained.

[3] = biological target: T2, KDR/Flk-1 and VEGF165R on HUVEC (Homo sapiens, UniProt O14786); test: Inhibition of 125I-VEGF165 binding to HUVEC
T2 construct: HUVEC, which express both KDR/Flk-1 and VEGF165R; endogenous in cells; host or cells: HUVEC (ATCC)
T2 sequence (O14786 22-923): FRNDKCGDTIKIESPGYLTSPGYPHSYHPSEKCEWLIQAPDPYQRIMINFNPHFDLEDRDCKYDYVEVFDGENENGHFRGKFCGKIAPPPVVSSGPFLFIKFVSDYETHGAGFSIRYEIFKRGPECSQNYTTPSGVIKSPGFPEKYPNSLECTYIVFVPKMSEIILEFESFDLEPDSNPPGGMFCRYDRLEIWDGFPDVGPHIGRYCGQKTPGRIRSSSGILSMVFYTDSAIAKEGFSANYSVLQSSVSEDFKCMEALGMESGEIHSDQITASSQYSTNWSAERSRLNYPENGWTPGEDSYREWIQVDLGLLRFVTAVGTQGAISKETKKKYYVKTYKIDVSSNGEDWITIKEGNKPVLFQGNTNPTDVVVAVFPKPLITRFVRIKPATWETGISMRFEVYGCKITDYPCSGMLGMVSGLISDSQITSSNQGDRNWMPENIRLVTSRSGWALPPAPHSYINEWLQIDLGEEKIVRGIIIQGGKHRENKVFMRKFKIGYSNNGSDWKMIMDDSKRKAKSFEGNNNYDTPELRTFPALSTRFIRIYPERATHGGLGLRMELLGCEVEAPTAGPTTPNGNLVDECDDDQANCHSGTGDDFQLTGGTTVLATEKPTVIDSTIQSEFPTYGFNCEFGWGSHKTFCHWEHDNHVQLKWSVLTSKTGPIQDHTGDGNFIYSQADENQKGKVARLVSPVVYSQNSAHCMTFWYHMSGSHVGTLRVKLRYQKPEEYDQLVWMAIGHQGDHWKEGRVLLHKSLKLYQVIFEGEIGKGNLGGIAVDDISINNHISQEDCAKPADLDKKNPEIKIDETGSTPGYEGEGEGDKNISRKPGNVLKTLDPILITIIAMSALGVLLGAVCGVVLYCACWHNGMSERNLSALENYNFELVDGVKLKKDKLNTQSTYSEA
Description: as §1
FIGS. 5A and 5B. Localization of a core inhibitory region within exon 7. GST-Ex 7 fusion proteins containing full-length exon 7-encoded domain or truncations at the N-terminal and C-terminal ends were prepared as described in the Examples. ^125I-VEGF165 (5 ng/ml) was bound to subconfluent HUVEC cultures as described in FIG. 3, in the presence of increasing concentrations of the GST fusion proteins. At the end of a 2-h incubation, the cells were washed and lysed, and the cell-associated radioactivity was determined with a y counter. The counts obtained are expressed as percentage of the counts obtained in the presence of PBS without fusion protein B, the amino acid sequences of VEGF exon 7 derivatives. These derivatives were prepared to contain the first cysteine residue of exon 8 at their C termini to keep an even number of cysteine residue. FIG. 5B discloses SEQ ID NO: 19.
as §2

[4] = biological target: T3, VEGF165R on 231 cells (Homo sapiens, UniProt O14786); test: Inhibition of 125I-VEGF165 binding to MDA-MB-231 (231) cells
T3 construct: to 231 cells which express only VEGF165R; endogenous in cells; host or cells: MDA-MB-231 (ATCC)
T3 sequence (O14786 22-923): as above
Description: as §1, §2

[5] = biological target: VEGF165R (Homo sapiens, UniProt O14786); test: Direct binding/cross-linking of 125I-GST-Ex 7 to HUVEC: VEGF165R; set-up: HUVEC, which express both KDR/Flk-1 and VEGF165R; endogenous in cells; host or cells: HUVEC (ATCC); settings: cross-linking, 1 ug/ml heparin, FIG. 1 lane 3; listed as exon 7 fusion protein
VEGF165R, sequence (O14786 22-923): as above
Description: (§5) FIG. 1. Cross-linking of 1 ^125I-VEGF165, ^125I-VEGF121 and ^125I-GST-EX 7 to HUVEC. ^125I-VEGF165 (5 ng/ml) (lane 1) or ^125I-VEGF121 (10 ng/ml) (lane 2) or ^125I-GST-EX 7 (50 nglml) (lane 3) were bound to subconfluent cultures of HUVEC in 6-cm dishes. The binding was carried out in the presence of 1 ug/ml heparin. At the end of a 2-H incubation, each ^125I-VEGF isoform was chemically cross-linked to the cell surface. The cells were lysed and proteins were resolved by 6% SDS-PAGE. The polyacrylamide gel was dried and exposed to x-ray film.
as §2

[6] = biological target: KDR/Flk-1 (Homo sapiens, UniProt P35968); test: Direct binding/cross-linking of 125I-GST-Ex 7 to HUVEC: KDR/Flk-1; set-up: HUVEC, which express both KDR/Flk-1 and VEGF165R; endogenous in cells; host or cells: HUVEC (ATCC); settings: cross-linking, 1 ug/ml heparin, FIG. 1 lane 3; listed as exon 7 fusion protein
KDR/Flk-1, sequence (P35968 20-1356): as the sequence (P35968 20-1356) above
Description: as §5, §2

[7] = biological target: T3, VEGF165R on 231 cells; settings: Soker et al., J. Biol. Chem. 271, 5761-5767 (1996); cited from earlier work
[8] = tested on: HUVEC; test: HUVEC proliferation ([3H]thymidine incorporation) in response to VEGF isoforms; format: cell-based, human
Description: FIG. 2. HUVEC proliferation in response to VEGF165 and VEGF121 HUVEC were cultured in 96-well dishes (5,000 cell/well) for 24 h. Increasing amounts of VEGF165 (closed circles) or VEGF121 (open circles) were added to the medium, and the cells were incubated for 3 more days. DNA synthesis based on the incorporation of [3H] thymidine into HUVEC DNA was measured as described in the Examples. The results represent the average counts in three wells, and the standard deviations were determined.
as §3, §4

[9] = control GST protein, even at 20 μg/ml

Molecule: GST protein: glutathione S-transferase alone, control protein prepared in a similar way [reference compound]
effect of GST alone on 125I-VEGF165 binding to PAE-KDR cells (in words) [1, 9]: no significant effect; also recorded: did not inhibit
inhibition of HUVEC proliferation by GST alone (in words) [2]: did not inhibit
effect of GST alone on 125I-VEGF165 binding to HUVEC (in words) [3, 9]: no significant effect; also recorded: did not inhibit
effect of GST alone on 125I-VEGF165 binding to 231 cells (in words) [4, 9]: no significant effect; also recorded: did not inhibit

direct binding to KDR/Flk-1 on HUVEC (in words) [6]: not and does not bind directly
inhibition of 125I-VEGF165 binding to PAE-KDR cells (in words) ([1]; 125I-VEGF165 5 ng/ml, FIG. 3C): did not, however, inhibit at all
inhibition of 125I-VEGF165 binding to HUVEC ([3]; 2 ug/ml fusion protein, FIG. 5): 80%
inhibition of 125I-VEGF165 binding to HUVEC ([3]; 125I-VEGF165 5 ng/ml, increasing concentrations of fusion protein, FIG. 3A): 85-95%
inhibition of 125I-VEGF165 binding to HUVEC compared with GST-Ex 7+8 (in words) ([3]; data not shown): comparable to that of GST-Ex 7+8
inhibition of 125I-VEGF165 binding to 231 cells ([4]; 125I-VEGF165 5 ng/ml, increasing concentrations of fusion protein, FIG. 3B): 98%
inhibition of 125I-VEGF165 binding to 231 cells compared with GST-Ex 7+8 (in words) ([4]; data not shown): comparable to that of GST-Ex 7+8
Molecule: GST-Ex 7: GST fusion protein with the entire 44 amino acid VEGF exon 7-encoded domain plus first cysteine residue of exon 8
direct binding to VEGF165R on HUVEC (in words) [5]: binds directly; also recorded: could bind
direct binding to VEGF165R on 231 cells (in words) [7]: binds directly

inhibitory activity on 125I-VEGF165 binding to HUVEC after deletion in exon 7, versus GST-Ex 7 (in words) ([3]; FIG. 5, increasing concentrations): did not reduce the inhibitory activity
Molecule: GST-Ex 7d-(1-10): GST-exon 7 fusion protein with the first 10 N-terminal amino acids of exon 7 deleted (HLFVQDPQTCKCSCKNTDSRCKARQLELNERTCRC; cysteine pairing not given here; also: GST fusion protein, side of fusion not given here)

Molecule: VEGF165: human recombinant vascular endothelial growth factor 165 isoform produced in Sf-21 insect cells
increase in the proliferation rate of HUVEC ([8]; 1-5 ng/ml VEGF165, FIG. 6): 5.5 fold
concentration at which the proliferation increase peaks ([8]; FIG. 6): 2.5 ng/mL
concentration for maximal stimulation of DNA synthesis ([8]; HUVEC, FIG. 2): 4 ng/mL
increase in HUVEC proliferation over control at maximal stimulation ([8]; HUVEC, FIG. 2): 8 fold
concentration for half-maximal stimulation of DNA synthesis ([8]; HUVEC, [3H]thymidine incorporation, FIG. 2): 1 ng/mL

B1: VEGF121: human recombinant vascular endothelial growth factor 121 isoform produced in Sf-21 insect cells (protein)
chain: APMAEGGGQNHHEVVKFMDVYQRSYCHPIETLVDIFQEYPDEIEYIFKPSCVPLMRCGGCCNDEGLECVPTEESNITMQIMRIKPHQGQHIGEMSFLQHNKCECRPKKDRARQEKCDKPRR
concentration for maximal stimulation of DNA synthesis ([8]; HUVEC, FIG. 2): 20 ng/mL
increase in HUVEC proliferation over control at maximal stimulation ([8]; HUVEC, FIG. 2): 4 fold
